One block for each binder: values may come before it.
Assays:
CgnB = molecular target: T1, CgnB (Chondromyces crocatus CM c5); assay: MST
T1 chain: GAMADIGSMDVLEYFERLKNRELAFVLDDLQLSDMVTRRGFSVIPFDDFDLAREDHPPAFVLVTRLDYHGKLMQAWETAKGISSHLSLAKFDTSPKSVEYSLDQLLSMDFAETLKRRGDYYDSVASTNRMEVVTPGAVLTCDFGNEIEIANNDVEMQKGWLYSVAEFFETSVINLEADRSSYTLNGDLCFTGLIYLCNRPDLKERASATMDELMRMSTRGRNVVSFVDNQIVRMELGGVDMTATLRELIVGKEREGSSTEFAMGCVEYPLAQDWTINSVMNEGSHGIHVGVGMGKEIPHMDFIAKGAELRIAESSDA

[1] = molecular target: T2, CgnB in the presence of CgnA (400 µM) (Chondromyces crocatus CM c5); assay: CgnA present with CgnC, CgnB titrated
T2 chain: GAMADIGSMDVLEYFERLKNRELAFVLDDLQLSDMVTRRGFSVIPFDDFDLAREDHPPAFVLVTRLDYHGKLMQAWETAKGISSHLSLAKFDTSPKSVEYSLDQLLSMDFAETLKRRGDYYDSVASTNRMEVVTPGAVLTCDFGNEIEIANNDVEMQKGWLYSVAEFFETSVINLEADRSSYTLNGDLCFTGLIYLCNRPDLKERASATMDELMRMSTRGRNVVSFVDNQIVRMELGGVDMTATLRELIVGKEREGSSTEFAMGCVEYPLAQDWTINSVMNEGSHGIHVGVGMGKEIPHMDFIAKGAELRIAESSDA

[2] = molecular target: T3, CgnE in the presence of CgnA (400 µM) (Chondromyces crocatus CM c5); assay: CgnA present with CgnC, CgnE titrated
T3 chain: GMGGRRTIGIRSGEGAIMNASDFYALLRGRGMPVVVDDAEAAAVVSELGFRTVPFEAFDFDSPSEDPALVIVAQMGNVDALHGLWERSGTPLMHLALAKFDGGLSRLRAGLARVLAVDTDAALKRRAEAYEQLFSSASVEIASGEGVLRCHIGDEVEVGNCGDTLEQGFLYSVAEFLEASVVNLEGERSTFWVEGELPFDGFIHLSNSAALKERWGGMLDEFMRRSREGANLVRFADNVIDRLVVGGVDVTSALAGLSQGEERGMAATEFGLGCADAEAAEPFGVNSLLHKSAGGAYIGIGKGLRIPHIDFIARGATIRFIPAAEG

CgnE [3] = molecular target: T4, CgnE (Chondromyces crocatus CM c5); assay: MST; CgnA at constant high concentration
T4 chain: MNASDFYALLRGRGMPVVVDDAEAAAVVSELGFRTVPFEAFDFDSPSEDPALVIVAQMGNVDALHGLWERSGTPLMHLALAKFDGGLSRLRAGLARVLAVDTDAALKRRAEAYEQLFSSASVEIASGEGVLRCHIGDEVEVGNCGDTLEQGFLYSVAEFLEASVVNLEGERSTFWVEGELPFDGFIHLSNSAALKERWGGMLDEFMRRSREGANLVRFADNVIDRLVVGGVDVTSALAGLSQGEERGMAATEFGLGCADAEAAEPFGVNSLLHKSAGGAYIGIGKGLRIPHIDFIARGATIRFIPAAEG

CgnE [4] = molecular target: T4, CgnE; assay: CgnE titrated
CgnE [5] = molecular target: T4, CgnE; assay: MST
CgnC = molecular target: T5, CgnC (Chondromyces crocatus CM c5); assay: MST; CgnA at constant high concentration
T5 chain: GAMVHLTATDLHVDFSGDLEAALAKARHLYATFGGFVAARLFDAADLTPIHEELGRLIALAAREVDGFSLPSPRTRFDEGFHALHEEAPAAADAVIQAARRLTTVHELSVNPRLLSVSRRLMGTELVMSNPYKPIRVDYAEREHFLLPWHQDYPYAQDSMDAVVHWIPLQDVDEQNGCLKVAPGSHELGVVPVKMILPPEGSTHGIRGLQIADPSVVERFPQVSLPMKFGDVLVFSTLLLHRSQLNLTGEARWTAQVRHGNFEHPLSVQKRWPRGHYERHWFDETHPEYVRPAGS

- Kd (CgnB): 78200 nM
Binder: MKKTIKQISAGDRSKKGN [CgnA leader peptide (CgnA^LP)]

- Kd [1]: 110 nM
- Kd [2]: 900 nM
- Kd (CgnE [3]): 900 nM
- Kd (CgnE [4]): 1100 nM
- Kd (CgnE [5]): 1100 nM
B1: CgnC (enzyme)
chain: GAMVHLTATDLHVDFSGDLEAALAKARHLYATFGGFVAARLFDAADLTPIHEELGRLIALAAREVDGFSLPSPRTRFDEGFHALHEEAPAAADAVIQAARRLTTVHELSVNPRLLSVSRRLMGTELVMSNPYKPIRVDYAEREHFLLPWHQDYPYAQDSMDAVVHWIPLQDVDEQNGCLKVAPGSHELGVVPVKMILPPEGSTHGIRGLQIADPSVVERFPQVSLPMKFGDVLVFSTLLLHRSQLNLTGEARWTAQVRHGNFEHPLSVQKRWPRGHYERHWFDETHPEYVRPAGS
modifications: sequence from Supplementary Table 8 (the excerpt mark inside it is read as contiguous); N-terminal GA is a cloning remnant; dimer by size-exclusion chromatography

- Kd (CgnC): 110 nM
B2: CgnB in the presence of CgnA (400 µM) (complex)
chain: GAMADIGSMDVLEYFERLKNRELAFVLDDLQLSDMVTRRGFSVIPFDDFDLAREDHPPAFVLVTRLDYHGKLMQAWETAKGISSHLSLAKFDTSPKSVEYSLDQLLSMDFAETLKRRGDYYDSVASTNRMEVVTPGAVLTCDFGNEIEIANNDVEMQKGWLYSVAEFFETSVINLEADRSSYTLNGDLCFTGLIYLCNRPDLKERASATMDELMRMSTRGRNVVSFVDNQIVRMELGGVDMTATLRELIVGKEREGSSTEFAMGCVEYPLAQDWTINSVMNEGSHGIHVGVGMGKEIPHMDFIAKGAELRIAESSDA
modifications: sequence from Supplementary Table 8 (the excerpt mark inside it is read as contiguous); N-terminal GA is a cloning remnant; dimer by size-exclusion chromatography
